Measured values from patent US20060264615A1 (MAXYGEN, published 2006).

T1: wild-type human p40 polypeptide (human, UniProt P29460 23-328)
T1 construct: Secreted from COS-7 or 293 cells co-transfected with a p35 nucleic acid; also called wt-p40
T1 sequence: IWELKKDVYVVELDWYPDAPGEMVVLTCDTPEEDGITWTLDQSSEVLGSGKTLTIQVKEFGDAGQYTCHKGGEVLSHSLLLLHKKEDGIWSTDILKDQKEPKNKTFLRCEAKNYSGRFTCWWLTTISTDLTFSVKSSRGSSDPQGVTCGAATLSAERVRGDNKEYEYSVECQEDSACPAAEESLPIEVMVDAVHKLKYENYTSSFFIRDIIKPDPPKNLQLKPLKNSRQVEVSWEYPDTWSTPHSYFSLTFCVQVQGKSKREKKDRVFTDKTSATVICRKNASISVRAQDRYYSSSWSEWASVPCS

T2: modified p35 polypeptide R2-571 with C-terminal EHtag
T2 construct: Recombinant (shuffled) p35 variant with the EHtag fused to its C-terminus; also called R2-571-EHtag
T2 chain: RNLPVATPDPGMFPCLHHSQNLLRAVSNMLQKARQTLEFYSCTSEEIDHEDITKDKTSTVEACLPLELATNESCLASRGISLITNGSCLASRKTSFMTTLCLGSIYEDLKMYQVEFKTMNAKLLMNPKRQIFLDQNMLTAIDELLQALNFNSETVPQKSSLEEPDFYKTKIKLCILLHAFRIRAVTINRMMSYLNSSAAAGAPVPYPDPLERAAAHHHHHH

B1: wild-type human p35 polypeptide with C-terminal EHtag (ligand)
chain: RNLPVATPDPGMFPCLHHSQNLLRAVSNMLQKARQTLEFYPCTSEEIDHEDITKDKTSTVEACLPLELTKNESCLNSRETSFITNGSCLASRKTSFMMALCLSSIYEDLKMYQVEFKTMNAKLLMDPKRQIFLDQNMLAVIDELMQALNFNSETVPQKSSLEEPDFYKTKIKLCILLHAFRIRAVTIDRVTSYLNASAAAGAPVPYPDPLERAAAHHHHHH
notes: wt-p35 with the EHtag fused to its C-terminus; also called wt-p35-EHtag
B2: modified p40 polypeptide B1-81 (ligand)
chain: IWELEKNVYVVELDWYPDAPGETVVLACDTPEEDGITWTSDQSSEVLGTGKTLTIHVKEFGDAGQYTCRKGGAVLSQSLLLLHKKEDGIWSTDILKDQKKPKNKIFLKCEAKNYSGRFTCWWLTAISTDLKFTVKSSRGSSDPQGVTCGAVTLSAERVSMDHREYNKYTVECQEGSACPSAEESLPIEVVVDAIHKLKYENYTSRFFIRDIIKPDPPKNLQLRPLKNSRHVEISWEYPDTWSTPHSYFSLTFCVQVQGKNKREKKLFMDQTSAKVTCHKDAKIRVQARDRYHSSSWSEWASVPCS
B3: modified p40 polypeptide A3-48 (ligand)
chain: IWELEKNVYVVELDWYPDAPGEMVVLACDTPEEDGITWTSDQSSEVLGTGKTLTIHVKEFGDAGQYTCHKGGKVLSRSLLLLHKKEDGIWSTDILKDQKEPKNKSFLKCEAKNYSGRFTCWWLTTISTDLTFSVKSSRGSTDPHGVTCGTATLSEDLGEYKKYRVECQEGSACPAAEESLPIEVVLEAVHKLKYENYTSSFFIRDIIKPDPPKNLQLRPLKNSRQVEVNWEYPDTWSTPHSYFSLTFCVQVQGRNKREKKLFMDQTSAKVTCHKDAKIRVQARDRYYSSSWSDWASVSCG
B4: wild-type human p35 polypeptide (ligand)
chain: RNLPVATPDPGMFPCLHHSQNLLRAVSNMLQKARQTLEFYPCTSEEIDHEDITKDKTSTVEACLPLELTKNESCLNSRETSFITNGSCLASRKTSFMMALCLSSIYEDLKMYQVEFKTMNAKLLMDPKRQIFLDQNMLAVIDELMQALNFNSETVPQKSSLEEPDFYKTKIKLCILLHAFRIRAVTIDRVTSYLNAS
notes: Secreted from COS-7 or 293 cells co-transfected with a p40 nucleic acid; also called wt-p35
B5: modified p40 polypeptide C2-22 (ligand)
chain: IWELKKDVYVVELDWYPNAPGETVVLTCDTPEEDGITWTSDQSSEVLGTGKTLTIHVKEFGDAGQYTCRKGGEALSRSLLLLHKKEDGIWSTDILKDQKEPKNKSFLKCEAKNYSGRFTCWWLTTISTDLKFSVKSSRGSTDPRGVTCGTATLSEDLGEYKKYRVECQEGSACPAAEESLPIEVVLEAVHKLKYENYTSSFFIRDIIKPDPPKNLQLKPLKNSRHVEVSWGYPDTWSTPHSYFSLTFCIQVQGKSKREKKDRIFTDKTSATVICRKNAKIRVQARDRYYSSFWSEWASVSCS
notes: Recombinant (shuffled) p40 variant; the mature region is stated as residues 23-324; also called p40C2-22
B6: modified p40 polypeptide B8-96 (ligand)
chain: IWELEKNVYVVELDWYPDAPGEMVVLACDTPEEDGITWTSDQSSEVLGTGKTLTIHVKEFGDAGQYTCRKGGAVLSQSLLLLHKKEDGIWSTDILKDQKEPKNKSFLKCEAKNYSGRFTCWWLTTISTDLKFSVKSSRGSSDPRGVTCGAALLSAEKVSLEHREYKKYRVECQEGSACPAAEESLPIEVVLEAVHKLKYENYTSSFFIRDIIKPDPPKNLQLRPLKNSRQVEVNWEYPDTWSTPHSYFSLTFCVQVQGKNKREKKLFMDQTSAKVTCHKDAKIRVQARDRYYSSSWSEWASVPCS
B7: modified p40 polypeptide A16-94 (ligand)
chain: IWELKKDVYVVELDWYPDAPGEMVVLACDTPEEDGITWTSDQSSEVLGTGKTLTIHVKEFGDAGQYTCHKGGTVLSQSLLLLHKKEDGIWSTDILKDQKEPKNKSFLKCEAKNYSGRFTCWWLTAISTDLKFTVKSSRGSTDPRGVTCGTATLSEDLGEYKKYRVECQEGSACPAAEESLPIEVVLEAVHKLKYENYTSSFFIRDIIKPDPPKNLQLRPLKNSRHVEVSWEYPDTWSAPHSYFSLTFGVQVQGRNKREDRLFMDQTSAKVVCHKDAKIRVQARDRYYSSSWSEWASVSLQSV
B8: modified p40 polypeptide B2-52 (ligand)
chain: IWELEKNVYVVELDWYPDAPGEMVVLACDTPEEDGITWTSDQSSGVLGTGKTLTIHVKEFGDAGQYTCRKGGAVLSQSLLLLHKKEDGIWSTDILKDQKEPKAKSFLKCEAKDYSGHFTCWWLTTISTDLKFSVKSSRGSSDPQGVTCGAVTLSAERVSMDHREYNKYTVECQEGSACPSAEESLPIEVVVDAIHKLKYENYTSSFFIRDIIKPDPPKNLQLRPLKNSRQVEVNWEYPDTWSTPHSYFSLTFCVQVQGKNKREKKLFMDQTSAKVTCHKDAKIRVQARDRYYSSSWSEWASVPCS

Legend:
[1] = molecular target: T1, wild-type human p40 polypeptide; assay: Western blot with anti-E tag mAB of heterodimer purified on an anti-E affinity column through the p35 EHtag (FIG. 14)
Description: (§1) Co-expressing in mammalian cells a modified p40 nucleic acid of the invention plus a modified p35 nucleic acid of the invention produces a substantially more homogenous heterodimeric protein than the heterodimeric protein produced by co-expressing a wt-p40 nucleic acid and a wt-p35 nucleic acid. […] Both the modified p35 nucleic acid and the wt-p35 nucleic acid also comprised a C-terminal EHtag coding sequence.

[2] = molecular target: B4; assay: immunoblot with anti-p35 mAB of COS-7 culture medium; ~70 kDa p40/p35 heterodimer band (FIG. 7)
[3] = molecular target: T1, wild-type human p40 polypeptide; assay: immunoblot with anti-p35 mAB of COS-7 culture medium; ~70 kDa p40/p35 heterodimer band, control (FIG. 7)
[4] = molecular target: T2, modified p35 polypeptide R2-571 with …; assay: Western blot with anti-E tag mAB of heterodimer purified on an anti-E affinity column through the p35 EHtag (FIG. 14)
Description: as §1

B1
binding result [1]: binds

B2
binding result [2]: binds

B3
binding result [2]: binds

B4
binding result [3]: binds

B5
binding result [2]: binds
binding result [4]: binds

B6
binding result [2]: binds

B7
binding result [2]: binds

B8
binding result [2]: binds
